Test results: paper PMC9616769, “Deconstruction of Neurotrypsin Reveals a Multi-factorially Regulated Activity Affecting Myotube Formation and Neuronal Excitability” (Molecular Neurobiology, 2022)

Biological target: the molecule itself
Test: SEC-MALS; Protein KW.802.5 (Shodex) column, 1 mL/min, 50 mM TRIS/HCl, 500 mM NaCl, pH 8.0; protein conjugate analysis

B1: AGR-124 (human agrin y4z19, FS9-LG3 domains, Ala893-Pro2068) (domain or fragment)
chain: not shown
modifications: glycans (limited N-linked, presumably O-linked) contributing around 10% of the total mass
notes: human agrin y4z19, 9th FS domain to the last LG domain (FS9-LG3), Ala893-Pro2068; codon-optimized synthetic gene; Tag removed with TEV protease; also called agrin-like AGR-124 substrate; source: SFM-HEK293 suspension cells, transient transfection; purified from the medium (Ni-IMAC, heparin, SEC); not shown: 6xHis, N-terminal, cleaved
  binding result: binds
